{"source": "patent US20240270820A1", "about": "(ELANCO US, published 2024)", "binders": {"B1": {"name": "canine IL4R-IL13R-IgGB (Fc fusion)", "chain": "SGSVKVLHEPSCFSDYISTSVCQWKMDHPTNCSAELRLSYQLDFMGSENHTCVPENREDSVCVCSMPIDDAVEADVYQLDLWAGQQLLWSGSFQPSKHVKPRTPGNLTVHPNISHTWLLMWTNPYPTENHLHSELTYMVNVSNDNDPEDFKVYNVTYMGPTLRLAASTLKSGASYSARVRAWAQTYNSTWSDWSPSTTWLNYYEPGGGSGTETQPPVTNLSVSVENLCTVIWTWDPPEGASPNCTLRYFSHFDNKQDKKIAPETHRSKEVPLNERICLQVGSQCSTNESDNPSILVEKCTPPPEGDPESAVTELQCVWHNLSYMKCTWLPGRNTSPDTNYTLYYWHSSLGKILQCEDIYREGQHIGCSFALTNLKDSSFEQHSVQIVVKDNAGKIRPSFNIVPLTSHVKPDPPHIKRLFFQNGNLYVQWKNPQNFYSRCLSYQVEVNNSQTETNDIFYVEEAKCQNSEFEGNLEGTICFMVPGVLPDTLNTVRIRVRTNKLCYEDDKLWSNWSQAMSIGENTDPTPKRENGRVPRPPDCPKCPAPEMLGGPSVFIFPPKPKDTLLIARTPEVTCVVVDLDPEDPEVQISWFVDGKQMQTAKTQPREEQFNGTYRVVSVLPIGHQDWLKGKQFTCKVNNKALPSPIERTISKARGQAHQPSVYVLPPSREELSKNTVSLTCLIKDFFPPDIDVEWQSNGQQEPESKYRTTPPQLDEDGSYFLYSKLSVDKSRWQRGDTFICAVMHEALHNHYTQESLSHSPGK", "notes": "also called canine IL4R-IL13R-Fc; Canine IL4R-IL13R-Fc (SINK)"}, "B2": {"name": "canine IL13R-IL4R-IgGB (Fc fusion)", "chain": "TETQPPVTNLSVSVENLCTVIWTWDPPEGASPNCTLRYFSHFDNKQDKKIAPETHRSKEVPLNERICLQVGSQCSTNESDNPSILVEKCTPPPEGDPESAVTELQCVWHNLSYMKCTWLPGRNTSPDTNYTLYYWHSSLGKILQCEDIYREGQHIGCSFALTNLKDSSFEQHSVQIVVKDNAGKIRPSFNIVPLTSHVKPDPPHIKRLFFQNGNLYVQWKNPQNFYSRCLSYQVEVNNSQTETNDIFYVEEAKCQNSEFEGNLEGTICFMVPGVLPDTLNTVRIRVRTNKLCYEDDKLWSNWSQAMSIGENTDPTGGGSGSGSVKVLHEPSCFSDYISTSVCQWKMDHPTNCSAELRLSYQLDFMGSENHTCVPENREDSVCVCSMPIDDAVEADVYQLDLWAGQQLLWSGSFQPSKHVKPRTPGNLTVHPNISHTWLLMWTNPYPTENHLHSELTYMVNVSNDNDPEDFKVYNVTYMGPTLRLAASTLKSGASYSARVRAWAQTYNSTWSDWSPSTTWLNYYEPKRENGRVPRPPDCPKCPAPEMLGGPSVFIFPPKPKDTLLIARTPEVTCVVVDLDPEDPEVQISWFVDGKQMQTAKTQPREEQFNGTYRVVSVLPIGHQDWLKGKQFTCKVNNKALPSPIERTISKARGQAHQPSVYVLPPSREELSKNTVSLTCLIKDFFPPDIDVEWQSNGQQEPESKYRTTPPQLDEDGSYFLYSKLSVDKSRWQRGDTFICAVMHEALHNHYTQESLSHSPGK", "notes": "also called Canis lupus IL13R-IL4R-Fc; canine IL13R-IL4R-Fc"}}, "key": {"[1]": {"biological_target": "T1, canine IL4 (Sino Biological Inc, Cat #70021-DNAE-5) (canine, UniProt O77762 25-132)", "T1 sequence (looked up)": "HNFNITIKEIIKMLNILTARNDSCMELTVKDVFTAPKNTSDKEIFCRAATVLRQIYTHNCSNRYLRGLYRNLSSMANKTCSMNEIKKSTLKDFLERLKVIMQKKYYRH", "assay": "cell-based or functional assay"}, "[2]": {"biological_target": "T2, canine IL13 with C-terminal poly-His tag (canine, UniProt Q9N0W9 19-131)", "T2 construct": "Expressed in 293 cells and purified from the supernatant", "T2 sequence": "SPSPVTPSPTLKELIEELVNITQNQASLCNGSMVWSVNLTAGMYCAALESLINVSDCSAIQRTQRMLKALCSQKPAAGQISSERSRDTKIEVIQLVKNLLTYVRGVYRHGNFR", "assay": "BLI (Octet), summary sentence of Example 4"}}, "data": [{"binder": "B1", "values": [{"measurement": "TF1 cell proliferation assay (CellTiter-Glo luminescence), IC50 by 4 parameter logistic fit", "setting": "[1]", "value": 2, "unit": "nM"}, {"measurement": "binding result", "setting": "[2]", "value": "binds"}]}, {"binder": "B2", "values": [{"measurement": "binding result", "setting": "[2]", "value": "binds"}]}]}
